Reference: patent US9096835B2, “DNA polymerase” (Medical Research Council, priority 2003, dated 2015)
“Also recorded” adds a separate entry of the source.

Test system: template containing a cis-syn cyclobutane thymine-thymine dimer (CPD)
Experiment: Translesion replication assay (primer extension), CPD
Type: biochemical
Conditions: gel-extension assay, 60° C.; listed as A10
Method: Template primers 22 (undamaged) or 23 (containing a synthetic abasic site) were synthesized by Lofstrand Laboratories (Gaithersburg, Md.). Template primer 24 (containing a single cis-syn thymine dimer), was synthesized as described (34). Primer 25 was ^32P-labeled and annealed to one of the three templates 22, 23, 24 (at a primer template ratio of molar 1:1.5) and extended in 40 mM Tris.HCl at pH 8.0, 5 mM MgCl2, 100 μM of each dNTP, 10 mM DTT, 250 μg/ml BSA, 2.5% glycerol, 10 nM primer-template DNA and 0.1 Unit of polymerase at 60° C. for various times.
Primer extension assays were essentially as described in (Ghadessy et al., 2004). Briefly, undamaged oligonucleotides and a 51mer containing a synthetic abasic site were synthesized by Lofstrand Laboratories (Gaithersburg, Md.) using standard techniques and were gel purified prior to use. A 20mer primer (LES—20 P) with the sequence 5′-[…]-3′ (SEQ ID NO: 99) was 5′-labeled with [^32P]ATP (5000 Ci/mmole; 1 Ci=37 GBq) (Pharmacia) using T4 polynucleotide kinase (Invitrogen, Carlsbad Calif.). Radiolabeled primer-template DNAs were prepared by annealing the 5′[^32P] labeled 20mer primer to one of the two following 51mer templates (at a primer template ratio of molar 1:1.5). 1) undamaged DNA (UNDT51T); 5′-AGCTACCATGCCTGCACGAATTCGGCATCCGTCGCGACCACGGTCGCAGCG-3′ (SEQ ID NO: 100); 2) an oligo (LABA51T) containing a synthetic abasic site (indicated as an X in bold font); 5′-AGCTACCATGCCTGCACGACA XCG GCATCCGTCGCGACCACGGTCGCAGCG-3′ (SEQ ID NO: 101). Standard replication reactions of 10 contained 40 mM Tris.HCl at pH 8.0, 5 mM MgCl2, 100 μM of each ultrapure dNTP (Amersham Pharmacia Biotech, NJ), 10 mM DTT, 250 μg/ml BSA, 2.5% glycerol, 10 nM 5′[32P] primer-template DNA and 0.1 Unit of polymerase. After incubation at 60° C. for various times reactions were terminated by the addition of 10 μl of 95% formamide/10 mM EDTA and the samples heated to 100° C. for 5 min. Reaction mixtures (5 μl) were subjected to 20% polyacrylamide/7 M Urea gel electrophoresis and replication products visualized by PhosphorImager analysis.

B1: 3A10: third round clone, abasic site bypass; SEQ ID NO: 86 (protein)
chain: MAMLPLFEPKGRVLLVDGHHLAYRTFFALKGLTTSRGEPVQVVYGFAKSLLKALKEDGYKAVFVVFDAKAPSFRHKAYEAYRAGRAPTPQDFPRQLALIKELVDLLGFTRLEVPGYEADDVLATLAKKAEKEGYEVRILTADRGLYQLVSDRVAVLHPEGHLITPEWLWEKYGLRPEQWVDFRALVGDPSDNLPGVKGIGEKTALKLLKEWGSLENLLKNLDRVKPENVREKIKAHLEDLRLSLELSRVRTDLPLEVDLAQGREPDREGLRAFLERLEFGSLLHEFGLLESPKALEEAPWPPPEGAFVGFVLSRKEPMWADLLALAAARGGRVHQAPEPYKALRDLKEARGLLAKDLSVLALREGLGLPPGDDPMLLAYLLDPSNTTPEGVARRYGGEWTEEAGERAALSERLFANLWGRLEGEERLLWLYREVERPLSAVLAHMETTGVRLDVAYLRALSLEVAEEIARLEAEVFRLAGRPFNLNSRDQLERVLFDELGLPAIGKTEKTGKRSTSAAVLEALREAHPIVEKILQYRELTKLKSTYIDPLPDLIHPRTGRLHTRFNQTATATGRLSSSDPNLQNIPVRTPLGQRIRRAFIAEEGWLLVVLDYSQMELRVLAHLSGDENLIRVFQEGKDIHTQTASWMFGVPPEAVDPLMRRAAKTVNFGVLYGMSAHRLSQELSIPYEEAVAFIERYFQSFPKVRAWIEKTLEEGRRRGYVETLFGRRRYVPDLNARMKSVRGAAERMAFNMPVQGTAADLMKLAMVKLFPRLREMGARMLLQVHDELLLEAPQARAEEVAALAKEAMEKAYPLAVPLEVEVGIGEDWLSAKE
modifications: Mutant Taq polymerase
B1 was tested, and the “CPD bypass in primer extension” value was “clearly better at both abasic site and CPD extension and bypass than both wild type and M1; also recorded: superior elongation and bypass when compared to wild type”.
